This note sets out measurements from paper PMC11893383 (Frontiers in Immunology, 2025).

What all share (assay): ELISA
Settings in all cases: both partners purified
(In general: ELISA stands for enzyme-linked immunosorbent assay.)

In experiment [1] the target is SARS-CoV-2 wild-type (WT) receptor-binding domain (RBD) (SARS-CoV-2, wild type (Wuhan-Hu-1 …, UniProt P0DTC2)).
Experiment [2] addresses T1, angiotensin-converting enzyme-2 (ACE2), biotinylated (Homo sapiens, assumed, UniProt Q9BYF1, biotin).
T1 construct: also called host protein

Experiment [3] concerns the target SARS-CoV-2 wild-type (WT) N-terminal domain (NTD) of the spike protein (SARS-CoV-2, wild type (Wuhan-Hu-1 …, UniProt P0DTC2)).

T1 sequence (Q9BYF1 18-805): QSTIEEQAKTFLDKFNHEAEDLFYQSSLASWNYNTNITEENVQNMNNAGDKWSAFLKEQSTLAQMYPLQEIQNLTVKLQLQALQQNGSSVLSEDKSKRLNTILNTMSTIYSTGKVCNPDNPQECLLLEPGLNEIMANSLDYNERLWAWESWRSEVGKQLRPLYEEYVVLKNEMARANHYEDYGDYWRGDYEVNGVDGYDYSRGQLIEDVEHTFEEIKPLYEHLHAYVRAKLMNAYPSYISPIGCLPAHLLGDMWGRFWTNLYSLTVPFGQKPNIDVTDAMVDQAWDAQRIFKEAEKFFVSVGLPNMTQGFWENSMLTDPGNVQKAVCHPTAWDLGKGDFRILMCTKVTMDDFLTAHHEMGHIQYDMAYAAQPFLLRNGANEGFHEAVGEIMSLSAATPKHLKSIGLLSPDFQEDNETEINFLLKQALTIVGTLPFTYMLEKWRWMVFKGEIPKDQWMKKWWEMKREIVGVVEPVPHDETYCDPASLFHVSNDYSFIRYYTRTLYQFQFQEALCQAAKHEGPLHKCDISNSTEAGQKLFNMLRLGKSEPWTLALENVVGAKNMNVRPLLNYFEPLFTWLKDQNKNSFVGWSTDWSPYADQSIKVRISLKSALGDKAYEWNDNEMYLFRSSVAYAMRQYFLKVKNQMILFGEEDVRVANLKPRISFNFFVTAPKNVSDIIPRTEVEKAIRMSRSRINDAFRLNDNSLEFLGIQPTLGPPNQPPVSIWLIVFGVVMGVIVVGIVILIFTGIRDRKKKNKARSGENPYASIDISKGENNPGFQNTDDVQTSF

B1: AB5-20 (antibody, V domains shown)
VH: QVQLVESGGGVVQPGRSLRLSCTASGFTFRHYGLHWVRQAPGKGLEWVAVILYDGSDEDYRDSVKGRFTISRDNSKNTLYLQMNSLRPEDTAVYYCAKQSGPYCSGGNCYSGHFDYWGQGTPVSVSS
VL: DIQMTQSPSSLSASVGDRVTITCQASQDISKSLSWYEQKPGKAPRLLIFEASNLETGVPSRFSGSGSGTSFSFTISSLQPEDFATYYCQQYDNVPLTFGGGTKVERK
B1: the binding result in experiment [1] is “binds”; in experiment [2] it was “no binding”.

B2: AB5-16 (antibody, V domains shown)
VH: QALMVQSEAAVKKPGASVKVSCKATGDAFSNHYLHWLRQAPGQGLEWLGIINPGAGSTTYAQKFQGRLTVTTDTSTNTVYMELSSLRSDDTAVYYCARDGAFIPSSYYYGMDVWGQGTTVTVSS
VL: EIVLTQSPGTLALSPGERATLSCRASQSVSSSYLAWYQQKPGQAPRLLIYGASSRATGVPDRFSGSGSGTDFTLTVSSLEPEDFAVYYCQQREAFGQGTKVEVK
As to B2, the binding result in experiment [1] is reported as “binds”; in experiment [2], “no binding”.

B3: AB5-12 (antibody, V domains shown)
VH: QVQLQESGPGLVRPSQALSLTCTVSGGSISSEGYYWGWIRQHPGKGLEWIGYIYYTGNAYYNPSLQSRIDISVDTSANQFSLRLNSVTAADTAVYYCASDSFKGGFDSWGQGALVTVSS
VL: EIVLTQSPTTLSLSPGERATLSCRASQTVSGSVAWYQQKPGQAPRLVIYDVSYRATGIPARFSGSGSGTDFTLTISSLEPEDFAVYYCQERRKAFGQGTTVEIK
In the case of B3, the binding result in experiment [1] and in experiment [3] was “no binding” throughout.

B4: AB6-17 (antibody, V domains shown)
VH: QLQLQESGPGLVESSETLSLTCTVSSGSISRSTYYWGWIRQPPGKGMEWIGSISSGGSTYYNPSLNSRVTISIDTSKNQFSLKLRSVTAADTAVYYCARALQWPSPRIDYWAQGTLVTVSS
VL: DIQMTQSPSSLSASVGDRVTITCRASQSISSYLNWYQHKPGKAPKLLIYAASSLESGVPSRFTGSGSGTDFTLTIDSLQPEDFATYYCQQSYSTPLFTFGPGTTVDIK
For the molecule B4, the binding result in experiment [1] is reported as “binds”; in experiment [2] it was “no binding”.

B5: AB5-5 (antibody, V domains shown)
VH: QISLKESGPTLVQPTQTLTLTCTFSGFSLSSSGVGVGWIRQPPGKALEWLALLYWNDDKRYSPSLRTRLTITKDSSKNQVVLTMTNMDPMDTATYYCAHPRQTTVTTVFGLYPRPAAFDVWGPGTMVTVSS
VL: QSFLTQPPSVSGAPGQRVTISCTGSSSNIGAGYGVDWYQQLPGTAPKLLIYDNNNRPSGVPDRFSGSTSGTSASLAITGLHAEDEADYYCQSYDRSLSGSVVFGGGTKLTVL
For B5, the binding result in experiment [1] and in experiment [3] was “no binding” in each case.
